# Experimental data as given in the RNAGym collection of RNA variant scans (doi:10.1021/acssynbio.7b00057).
# B1: Pistol ribozyme (parent)
# chain: GGGUCGUUGUUCCAUAAUCGCGUGGAUAUGGCACGCAAGUUUCUACCGGGCACCGUAAAUGUCCGACUGGAGCCGUUCGGGCGGCUAUAAACAGACCUCAGGCCCGAAGCGUGGCGGCACCUGCCGCCGGUGGUAAAAAAGAUCGGAAGAGCACACGUCU
# Variants of: B1
# Experiment: aptazyme ON/OFF ratio, guanine; higher = stronger switching; co-transcriptional cleavage with and without guanine
row,Variant,aptazyme ON/OFF ratio
1,U7G U8G G9U U10C U11C C12G C13A,1.19
2,U8G G9C U10A U11A C12U C13U,1.19
3,U7A U8G U10G U11G C12G C13G,1.03
4,U8C G9C U10A U11G C12G C13G,1.11
5,U7G G9U U10A C12U C13G,1.14
6,U7G U8G G9U U10G U11C C12U C13A,1.06
7,U8G U11A C12U C13G,1.12
8,U10C U11C C12U C13U,1.02
9,U7A U8A G9U U10A U11A C12U C13U,1.22
10,U7G U8C G9C U10C U11A C12A,1.06
11,U7G U8C G9U C12U C13U,1.41
12,U7G U8G G9A U10G U11A C12A C13A,1.12
13,U7C U8C G9C U10A U11G C12U C13A,1.15
14,G9A U10C U11C C12A C13G,1.18
15,U7C U8G G9C U11A C12G,1.16
16,U7A U8A G9U U10A U11G C12U C13A,1.25
17,G9C U11C C12A C13A,1.12
18,U8C U10G U11C,1.1
19,U8A G9U U10A,1.31
20,G9C U10C U11G C12U C13G,1.05
21,U7A G9A U11A C12A C13G,1.16

row,Variant,aptazyme ON/OFF ratio
1,U7G U8G G9C U10A C12A C13A,1.03
2,U7C U8G G9U U10C U11G C12A,1.14
3,U7A U8C G9U U10A U11C C12U,1.04
4,U7C U8G U10A U11A C12A C13G,1.12
5,U8C G9A U10C U11A C12U C13A,1.37
6,U8G G9C U10G U11A C12G C13G,1.29
7,G9U U10A U11C C12A C13G,0.991
8,U7A U8G U10G U11C,1.39
9,U8C G9U U10C U11G C12G,1.12
10,U7C U8C G9U U10G U11C C12A C13G,1.07
11,U7C U8C G9A C12A C13A,1.24
12,U8A G9U U10G U11A C12U C13A,1.13
13,U7A U8A U10C U11G C12U C13A,1.23
14,G9U U11C C12U C13A,1.51
15,U7C U8C G9A U11A C12G C13G,1.17
16,U7C U8G U10A U11G C12U C13G,1.08
17,G9U C12A C13U,1.1
18,G9U C12A C13G,1.45
19,U8A G9U U10A U11A C12A,1.36
20,U7A U8C U10A C12U,1.1
21,U10A U11A C12U C13G,1.35

row,Variant,aptazyme ON/OFF ratio
1,U7G U8G G9A U10G U11G C12U C13A,1.71
2,G9A U11C C12U C13U,1.55
3,U8C U10C U11A C12A,1.34
4,U7A U8A G9C U10G U11G C12G C13A,1.2
5,U7A U8A G9U U11G C12A C13A,1.29
6,U7C U8A U10G,1.37
7,U8G U10G U11C C13A,1.04
8,G9A C12U C13A,1.46
9,U7A G9C,1.25
10,U7C U8G G9U U10C,2.72
11,U7A U8A G9A U11G C13U,1.29
12,U7C U8G G9U U11C C12A C13G,1.13
13,U10A U11C C12G,1.15
14,U7A U8C U10A U11C C12A,1.09
15,U8C G9A U11A C12G,1.18
16,U7G U8A G9C U10G U11A C12A,1
17,U7A U8A G9U U11C C12G C13U,1.29
18,U7G U8G G9A C13A,1.5
19,U8A U10C U11C C13G,1.04
20,U7C U8C G9A U11G C13G,1.28
21,U7G U8A G9C U11C C12G C13A,1.02

row,Variant,aptazyme ON/OFF ratio
1,U8G G9A U10A U11A C12G,1.28
2,G9C U11C C12G,1.22
3,U7G U8G U11G C12A,1.42
4,U8A G9C U11C C13G,1.04
5,U7C U8C G9U U10C U11A C12A C13A,1.17
6,U7G U8A G9A U10G U11G C12G C13A,1.27
7,G9U U10C U11A C13U,1.48
8,G9U U10C U11A C13G,1.09
9,G9U U10C U11A C13A,1.31
10,U7C U8A G9A U10G C13A,1.17
11,U7C G9A U10G C12A C13U,1.19
12,U8G U10C C12U,3.67
13,U8C G9A U10C U11A C12U,1.55
14,U7A U8C G9C U10A U11A C13A,1.07
15,U7C U10G U11C C12U,1.16
16,U7G U10C U11A C12A C13G,1.06
17,U7C U8A G9U U10C C12U,1.13
18,U8A G9U C12A C13G,1.16
19,U8G G9A U10A U11A C12A C13G,1.18
20,U7G U8G G9U U10G C13G,1.21
